Experimental findings from US20220056092A1 are described below.

The target in this assay is IL12 receptor on bystander (GFP+) T cells (human) (UniProt P42701). In words: cell-based or functional assay.
IL12 receptor on bystander (GFP+) T cells (human), sequence (Q99665 24-862, chain 2 of 2, other chains not shown): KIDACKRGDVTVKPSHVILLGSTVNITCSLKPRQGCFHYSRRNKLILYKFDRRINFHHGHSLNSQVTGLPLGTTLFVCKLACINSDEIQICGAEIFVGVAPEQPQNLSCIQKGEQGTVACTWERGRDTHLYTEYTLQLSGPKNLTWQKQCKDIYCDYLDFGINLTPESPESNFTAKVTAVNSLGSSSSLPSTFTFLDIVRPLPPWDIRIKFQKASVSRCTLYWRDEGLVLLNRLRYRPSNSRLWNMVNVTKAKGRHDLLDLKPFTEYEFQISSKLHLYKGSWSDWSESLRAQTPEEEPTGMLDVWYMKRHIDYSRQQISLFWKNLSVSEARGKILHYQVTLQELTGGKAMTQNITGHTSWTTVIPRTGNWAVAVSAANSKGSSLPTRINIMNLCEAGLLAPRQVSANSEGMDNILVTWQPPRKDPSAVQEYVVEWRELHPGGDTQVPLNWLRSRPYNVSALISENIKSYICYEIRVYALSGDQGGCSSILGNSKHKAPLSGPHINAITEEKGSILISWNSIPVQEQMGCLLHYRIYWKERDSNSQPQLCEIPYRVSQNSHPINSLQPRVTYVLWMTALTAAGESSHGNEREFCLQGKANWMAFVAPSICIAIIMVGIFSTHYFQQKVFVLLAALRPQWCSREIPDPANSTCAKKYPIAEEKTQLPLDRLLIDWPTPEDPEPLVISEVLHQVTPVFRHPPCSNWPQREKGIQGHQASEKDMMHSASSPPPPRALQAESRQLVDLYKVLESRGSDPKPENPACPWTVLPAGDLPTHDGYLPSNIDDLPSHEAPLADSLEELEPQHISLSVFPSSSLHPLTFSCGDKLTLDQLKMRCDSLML

secreted IL12 encoded by OT-001356 (ORF2: p40 signal sequence; p40 (23-328 of WT); Linker ((G4S)3); p35 (57-253 of WT); BamHI (GS)) (ligand), sequence (chain): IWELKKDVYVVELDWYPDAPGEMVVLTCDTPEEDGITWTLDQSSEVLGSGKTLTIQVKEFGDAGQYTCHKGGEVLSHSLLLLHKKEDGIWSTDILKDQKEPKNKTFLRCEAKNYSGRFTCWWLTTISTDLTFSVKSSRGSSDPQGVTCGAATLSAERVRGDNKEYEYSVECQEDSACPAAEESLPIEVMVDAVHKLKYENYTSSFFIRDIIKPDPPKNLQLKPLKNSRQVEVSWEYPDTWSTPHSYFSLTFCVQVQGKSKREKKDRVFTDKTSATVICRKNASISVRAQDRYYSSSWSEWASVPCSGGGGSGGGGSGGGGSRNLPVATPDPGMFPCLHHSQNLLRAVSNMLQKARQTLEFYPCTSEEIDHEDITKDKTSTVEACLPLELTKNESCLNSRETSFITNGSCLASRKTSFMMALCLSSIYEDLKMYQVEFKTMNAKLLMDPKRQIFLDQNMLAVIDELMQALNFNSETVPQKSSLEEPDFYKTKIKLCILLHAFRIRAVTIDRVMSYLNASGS

In the case of “membrane bound IL12 encoded by OT-001895 (p40 (23-328 of WT); (G4S)3; p35 (57-253 of WT); (GS)15; CD8a Hinge and Transmembrane Domain; GS) (ligand)”, the Bystander effect (pSTAT4 geometric MFI on GFP+ T cells in 1 hour supernatants), ratio 1.1 (geometric MFI) was -136; the Bystander effect (pSTAT4 geometric MFI on GFP+ T cells in 1 hour supernatants), ratio 2.1 (geometric MFI) is -238; the Bystander effect (pSTAT4 geometric MFI on GFP+ T cells in 1 hour supernatants), ratio 4.3 (geometric MFI) is -277; the Bystander effect (pSTAT4 geometric MFI on GFP+ T cells in 1 hour supernatants), ratio 8.5 (geometric MFI) is -1180. Further, the Bystander effect (pSTAT4 geometric MFI on GFP+ T cells in 1 hour supernatants), ratio 17.1 (geometric MFI) is -3000; the Bystander effect (pSTAT4 geometric MFI on GFP+ T cells in 1 hour supernatants), ratio 34.1 (geometric MFI) was -3720; the Transactivation (pSTAT4 geometric MFI on GFP+ cells in co-culture), ratio 1.1 (geometric MFI) is 4500; the Transactivation (pSTAT4 geometric MFI on GFP+ cells in co-culture), ratio 2.1 (geometric MFI) was 6100. The Transactivation (pSTAT4 geometric MFI on GFP+ cells in co-culture), ratio 4.3 (geometric MFI) stood at 7170; the Transactivation (pSTAT4 geometric MFI on GFP+ cells in co-culture), ratio 8.5 (geometric MFI) was determined as 8200; the Transactivation (pSTAT4 geometric MFI on GFP+ cells in co-culture), ratio 17.1 (geometric MFI) is 7720; the Transactivation (pSTAT4 geometric MFI on GFP+ cells in co-culture); table head says ratio of 64, paragraph 725 gives 34.1 (geometric MFI) was 7700.
“membrane bound IL12 encoded by OT-002011 (B7.1 transmembrane domain and short CD8 hinge domain) (ligand)”: the Bystander effect (pSTAT4 geometric MFI on GFP+ T cells in 1 hour supernatants), ratio 2.4 (geometric MFI) was -642; the Bystander effect (pSTAT4 geometric MFI on GFP+ T cells in 1 hour supernatants), ratio 4.7 (geometric MFI) is -566; the Bystander effect (pSTAT4 geometric MFI on GFP+ T cells in 1 hour supernatants), ratio 9.5 (geometric MFI) is -1130; the Bystander effect (pSTAT4 geometric MFI on GFP+ T cells in 1 hour supernatants), ratio 18.9 (geometric MFI) was -1380. For the same substance, the Bystander effect (pSTAT4 geometric MFI on GFP+ T cells in 1 hour supernatants), ratio 37.9 (geometric MFI) is -2880; the Bystander effect (pSTAT4 geometric MFI on GFP+ T cells in 1 hour supernatants), ratio 75.8 (geometric MFI) is -3530; the Transactivation (pSTAT4 geometric MFI on GFP+ cells in co-culture), ratio 2.4 (geometric MFI) came to 5190; the Transactivation (pSTAT4 geometric MFI on GFP+ cells in co-culture), ratio 4.7 (geometric MFI) worked out at 6680. For the same substance, the Transactivation (pSTAT4 geometric MFI on GFP+ cells in co-culture), ratio 9.5 (geometric MFI) is 7760; the Transactivation (pSTAT4 geometric MFI on GFP+ cells in co-culture), ratio 18.9 (geometric MFI) was 8320; the Transactivation (pSTAT4 geometric MFI on GFP+ cells in co-culture), ratio 37.9 (geometric MFI) amounted to 8030; the Transactivation (pSTAT4 geometric MFI on GFP+ cells in co-culture); table head says ratio of 64, paragraph 725 gives 75.8 (geometric MFI) turned out to be 8090.
Consider “membrane bound IL12 encoded by OT-002096 (B7.1 TM domain and IgG1 CH2-CH3 domain as a hinge domain) (ligand)”, for which the Bystander effect (pSTAT4 geometric MFI on GFP+ T cells in 1 hour supernatants), ratio 2.4 (geometric MFI) is 405; the Bystander effect (pSTAT4 geometric MFI on GFP+ T cells in 1 hour supernatants), ratio 4.8 (geometric MFI) was 1050; the Bystander effect (pSTAT4 geometric MFI on GFP+ T cells in 1 hour supernatants), ratio 9.7 (geometric MFI) stood at 1650; the Bystander effect (pSTAT4 geometric MFI on GFP+ T cells in 1 hour supernatants), ratio 19.4 (geometric MFI) came out at 1470. For the same substance, the Bystander effect (pSTAT4 geometric MFI on GFP+ T cells in 1 hour supernatants), ratio 38.7 (geometric MFI) amounted to 1470; the Bystander effect (pSTAT4 geometric MFI on GFP+ T cells in 1 hour supernatants), ratio 77.5 (geometric MFI) worked out at 955; the Transactivation (pSTAT4 geometric MFI on GFP+ cells in co-culture), ratio 2.4 (geometric MFI) is 2620; the Transactivation (pSTAT4 geometric MFI on GFP+ cells in co-culture), ratio 4.8 (geometric MFI) is 3250. The Transactivation (pSTAT4 geometric MFI on GFP+ cells in co-culture), ratio 9.7 (geometric MFI) turned out to be 4030; the Transactivation (pSTAT4 geometric MFI on GFP+ cells in co-culture), ratio 19.4 (geometric MFI) amounted to 4180; the Transactivation (pSTAT4 geometric MFI on GFP+ cells in co-culture), ratio 38.7 (geometric MFI) is 4860; the Transactivation (pSTAT4 geometric MFI on GFP+ cells in co-culture); table head says ratio of 64, paragraph 725 gives 77.5 (geometric MFI) came out at 5220.
With “membrane bound IL12 encoded by OT-002111 (B7.1 TM domain and B7.1 C2 domain as a hinge domain) (ligand)”, the Bystander effect (pSTAT4 geometric MFI on GFP+ T cells in 1 hour supernatants), ratio 1.5 (geometric MFI) was -59; the Bystander effect (pSTAT4 geometric MFI on GFP+ T cells in 1 hour supernatants), ratio 2.9 (geometric MFI) was 852; the Bystander effect (pSTAT4 geometric MFI on GFP+ T cells in 1 hour supernatants), ratio 5.9 (geometric MFI) was found to be 437; the Bystander effect (pSTAT4 geometric MFI on GFP+ T cells in 1 hour supernatants), ratio 11.8 (geometric MFI) was -58. Also, the Bystander effect (pSTAT4 geometric MFI on GFP+ T cells in 1 hour supernatants), ratio 23.6 (geometric MFI) was -1010; the Bystander effect (pSTAT4 geometric MFI on GFP+ T cells in 1 hour supernatants), ratio 47.1 (geometric MFI) is -4240; the Transactivation (pSTAT4 geometric MFI on GFP+ cells in co-culture), ratio 1.5 (geometric MFI) was 4660; the Transactivation (pSTAT4 geometric MFI on GFP+ cells in co-culture), ratio 2.9 (geometric MFI) is 6540. The Transactivation (pSTAT4 geometric MFI on GFP+ cells in co-culture), ratio 5.9 (geometric MFI) stood at 7210; the Transactivation (pSTAT4 geometric MFI on GFP+ cells in co-culture), ratio 11.8 (geometric MFI) amounted to 7660; the Transactivation (pSTAT4 geometric MFI on GFP+ cells in co-culture), ratio 23.6 (geometric MFI) was determined as 7630; the Transactivation (pSTAT4 geometric MFI on GFP+ cells in co-culture); table head says ratio of 64, paragraph 725 gives 47.1 (geometric MFI) is 5460.
Take “membrane bound IL12 encoded by OT-002112 (B7.1 TM domain and FcgammaR2b (Fcgr2b) as a hinge domain) (ligand)”: the Bystander effect (pSTAT4 geometric MFI on GFP+ T cells in 1 hour supernatants), ratio 1.3 (geometric MFI) is -1; the Bystander effect (pSTAT4 geometric MFI on GFP+ T cells in 1 hour supernatants), ratio 2.5 (geometric MFI) was -818; the Bystander effect (pSTAT4 geometric MFI on GFP+ T cells in 1 hour supernatants), ratio 5 (geometric MFI) was -232; the Bystander effect (pSTAT4 geometric MFI on GFP+ T cells in 1 hour supernatants), ratio 10.1 (geometric MFI) was -988. In addition, the Bystander effect (pSTAT4 geometric MFI on GFP+ T cells in 1 hour supernatants), ratio 20.2 (geometric MFI) was -1400; the Bystander effect (pSTAT4 geometric MFI on GFP+ T cells in 1 hour supernatants), ratio 40.4 (geometric MFI) was -2660; the Transactivation (pSTAT4 geometric MFI on GFP+ cells in co-culture), ratio 1.3 (geometric MFI) was 5110; the Transactivation (pSTAT4 geometric MFI on GFP+ cells in co-culture), ratio 2.5 (geometric MFI) is 6070. Moreover, the Transactivation (pSTAT4 geometric MFI on GFP+ cells in co-culture), ratio 5 (geometric MFI) came out at 7760; the Transactivation (pSTAT4 geometric MFI on GFP+ cells in co-culture), ratio 10.1 (geometric MFI) was 8120; the Transactivation (pSTAT4 geometric MFI on GFP+ cells in co-culture), ratio 20.2 (geometric MFI) worked out at 8420; the Transactivation (pSTAT4 geometric MFI on GFP+ cells in co-culture); table head says ratio of 64, paragraph 725 gives 40.4 (geometric MFI) amounted to 8020.
“secreted IL12 encoded by OT-001356 (ORF2: p40 signal sequence; p40 (23-328 of WT); Linker ((G4S)3); p35 (57-253 of WT); BamHI (GS)) (ligand)”: the Bystander effect (pSTAT4 geometric MFI on GFP+ T cells in 1 hour supernatants), CAR-IL12+:GFP+ ratio 73.9 (geometric MFI) is -2620; the Bystander effect (pSTAT4 geometric MFI on GFP+ T cells in 1 hour supernatants), ratio 2.3 (geometric MFI) is -1090; the Bystander effect (pSTAT4 geometric MFI on GFP+ T cells in 1 hour supernatants), ratio 4.6 (geometric MFI) was -518; the Bystander effect (pSTAT4 geometric MFI on GFP+ T cells in 1 hour supernatants), ratio 9.2 (geometric MFI) is -86. Besides, the Bystander effect (pSTAT4 geometric MFI on GFP+ T cells in 1 hour supernatants), ratio 18.5 (geometric MFI) is -226; the Bystander effect (pSTAT4 geometric MFI on GFP+ T cells in 1 hour supernatants), ratio 37 (geometric MFI) is -1400; the Transactivation (pSTAT4 geometric MFI on GFP+ cells in co-culture), ratio 2.3 (geometric MFI) came to 2840; the Transactivation (pSTAT4 geometric MFI on GFP+ cells in co-culture), ratio 4.6 (geometric MFI) worked out at 4370. For the same substance, the Transactivation (pSTAT4 geometric MFI on GFP+ cells in co-culture), ratio 9.2 (geometric MFI) came to 5570; the Transactivation (pSTAT4 geometric MFI on GFP+ cells in co-culture), ratio 18.5 (geometric MFI) was found to be 6420; the Transactivation (pSTAT4 geometric MFI on GFP+ cells in co-culture), ratio 37 (geometric MFI) is 6940; the Transactivation (pSTAT4 geometric MFI on GFP+ cells in co-culture); table head says CAR-IL12+:GFP+ ratio of 64, paragraph 725 gives 73.9 (geometric MFI) came out at 6450.
